Patent publication US20210379157A1 (UNIVERSITY OF ULSTER, published 2021)
Where no end group is shown, it is not given here. [ ]: non-standard residue; d: D form.

biological target: T1, GIP receptor (human, UniProt P48546 22-466); assay: cell-based or functional assay
T1 sequence (looked up): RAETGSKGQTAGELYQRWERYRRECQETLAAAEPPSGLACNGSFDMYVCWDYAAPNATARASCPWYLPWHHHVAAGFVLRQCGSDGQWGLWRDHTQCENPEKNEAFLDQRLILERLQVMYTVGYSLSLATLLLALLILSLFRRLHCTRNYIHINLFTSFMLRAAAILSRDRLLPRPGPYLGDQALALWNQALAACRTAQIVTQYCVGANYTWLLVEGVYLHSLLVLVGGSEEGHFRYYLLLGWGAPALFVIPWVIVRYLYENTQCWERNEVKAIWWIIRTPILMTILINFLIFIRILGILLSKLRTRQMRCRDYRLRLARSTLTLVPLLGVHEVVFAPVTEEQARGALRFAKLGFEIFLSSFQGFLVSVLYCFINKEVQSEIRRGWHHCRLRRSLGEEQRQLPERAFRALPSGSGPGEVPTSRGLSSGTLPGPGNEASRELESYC

| Binder | cAMP production in SaOS-2 cells, lowest effective concentration |
| --- | --- |
| Y[dA]EGTFISDYSIAMHPQQPWIL [(DAla2)GIP/xenin-8-Gln] | 0.1 nM |
| Y[dA]EGTFISDYSIAMHPQQPWILGAADDDDDD [(DAla2)GIP/xenin-8-Gln(L-Asp)] | 10 nM |
| Y[dA]EGTFISDYSIAMHPQQPWILGAAEEEEEE [(DAla2)GIP/xenin-8-Gln(L-Glu)] | 1000 nM |
